Here are results for 2 substances from patent US6509383.

The target of series [1] is purified calf thymus DNA polymerase δ (calf (bovine)) (UniProt P28339). Nature of the series: cell-based or functional assay.
The target of series [2] is his-tagged Drosophila PCNA (UniProt P17917).
Sequence of his-tagged Drosophila PCNA (P17917 whole entry): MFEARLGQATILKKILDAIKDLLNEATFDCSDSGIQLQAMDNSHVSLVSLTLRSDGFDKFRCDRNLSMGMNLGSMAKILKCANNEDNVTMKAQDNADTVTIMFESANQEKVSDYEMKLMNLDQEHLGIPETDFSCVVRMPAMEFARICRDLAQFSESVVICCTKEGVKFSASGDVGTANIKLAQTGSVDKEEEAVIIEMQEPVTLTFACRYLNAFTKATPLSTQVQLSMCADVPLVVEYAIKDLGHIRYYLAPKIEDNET

Sequence of purified calf thymus DNA polymerase δ (calf (bovine)) (P28339 whole entry, stated change not applied): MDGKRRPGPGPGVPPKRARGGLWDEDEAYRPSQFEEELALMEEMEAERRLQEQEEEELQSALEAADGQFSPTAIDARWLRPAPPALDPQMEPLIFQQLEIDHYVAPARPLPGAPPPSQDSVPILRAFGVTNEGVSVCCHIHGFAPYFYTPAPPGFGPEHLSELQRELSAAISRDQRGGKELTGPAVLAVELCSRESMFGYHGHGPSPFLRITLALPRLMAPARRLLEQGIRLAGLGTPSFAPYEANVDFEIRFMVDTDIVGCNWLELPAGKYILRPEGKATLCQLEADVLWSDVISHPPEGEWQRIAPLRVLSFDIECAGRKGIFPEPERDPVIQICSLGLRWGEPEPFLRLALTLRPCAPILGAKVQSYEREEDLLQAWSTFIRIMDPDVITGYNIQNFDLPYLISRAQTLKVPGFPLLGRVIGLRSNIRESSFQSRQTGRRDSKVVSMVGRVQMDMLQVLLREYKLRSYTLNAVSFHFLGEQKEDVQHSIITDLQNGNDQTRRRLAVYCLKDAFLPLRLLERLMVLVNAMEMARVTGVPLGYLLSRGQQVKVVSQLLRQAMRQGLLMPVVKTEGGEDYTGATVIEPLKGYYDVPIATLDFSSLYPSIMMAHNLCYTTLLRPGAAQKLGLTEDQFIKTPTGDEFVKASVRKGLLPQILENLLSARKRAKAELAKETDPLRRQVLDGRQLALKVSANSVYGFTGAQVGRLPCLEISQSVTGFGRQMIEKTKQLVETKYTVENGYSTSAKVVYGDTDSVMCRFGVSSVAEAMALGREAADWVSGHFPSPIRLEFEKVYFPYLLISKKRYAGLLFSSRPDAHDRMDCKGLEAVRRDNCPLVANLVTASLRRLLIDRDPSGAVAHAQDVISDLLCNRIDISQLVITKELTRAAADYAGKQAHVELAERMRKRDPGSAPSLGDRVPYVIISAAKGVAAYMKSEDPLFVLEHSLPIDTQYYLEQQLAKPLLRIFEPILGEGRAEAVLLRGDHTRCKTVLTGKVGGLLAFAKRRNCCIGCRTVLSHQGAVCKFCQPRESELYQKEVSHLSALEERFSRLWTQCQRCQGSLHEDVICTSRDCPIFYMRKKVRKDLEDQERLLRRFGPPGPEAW

In series [1], “NH2-terminally his-tagged E^85>K mutant human PCNA (from UniProt P12004 1-261)” had a solution assay of pol δ: extended DNA synthesis beyond model abasic template lesions, compared with wild-type PCNA (phosphorimager) of 40%.

On to purified calf thymus DNA polymerase δ, for which the “in situ DNA polymerase assay on Ni2+-IDA-paper ([alpha-32P]dGTP incorporation, PhosphorImager)” value in series [2] was “almost no reactivity was observed corresponding to the spot of Drosophila PCNA”.
